Values quoted from earlier work, collected in publication PMC2882753.

Key:
His134 = experiment: NMR; details: 298 K; not stated (no ferricyanide present); oxidized [2Fe-2S] cluster
His154 = experiment: NMR; details: 298 K; not stated (no ferricyanide present); oxidized [2Fe-2S] cluster

Rieske iron-sulfur protein, soluble fragment (TtRp) (Thermus thermophilus; del1-45;del202-210;W142F)
pKa (His134): 9.24 ± 0.02
pKa (His154): 7.46 ± 0.02
